Experimental data taken from US20170258835A1 (University of Pennsylvania, published 2017).

Biological target: T1, CD27-Z CLEAR (UniProt P26842 20-260; P20963 52-163)
T1 construct: also called CD27 CLEAR
Assay: flow cytometry, T cells co-electroporated with CD27-Z RNA and bi-specific antibody RNA, stained with anti-mouse IgG Fab (streptavidin APC) and anti-CD27 FITC; controls: CD27Z alone Q2 2.52 and Q3 9.39, NO EP Q2 0.089 and Q3 1.92

T1 sequence (P26842 other isoform, or with tags, fused parts or gaps): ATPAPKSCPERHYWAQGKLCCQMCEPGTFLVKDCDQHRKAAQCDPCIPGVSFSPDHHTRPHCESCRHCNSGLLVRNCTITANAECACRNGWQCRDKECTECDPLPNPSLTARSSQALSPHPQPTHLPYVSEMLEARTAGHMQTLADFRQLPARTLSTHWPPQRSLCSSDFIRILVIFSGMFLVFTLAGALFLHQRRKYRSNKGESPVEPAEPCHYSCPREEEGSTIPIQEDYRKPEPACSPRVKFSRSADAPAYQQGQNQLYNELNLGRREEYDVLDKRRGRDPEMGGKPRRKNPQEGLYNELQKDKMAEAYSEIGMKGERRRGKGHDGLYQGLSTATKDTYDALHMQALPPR

percent of cells CD27+ mIgG Fab+ (Q2)	percent of cells CD27- mIgG Fab+ (Q3)	Binder
7.58	18.8	M708.CD19 bi-specific antibody (bispecific antibody, anti-CD27 (M708) x anti-CD19; also called aCD27-aCD19) DIQMTQSPSSLSASVGDRVTITCRASKSVSTSGYSFMHWYQQKPGKAPKLLIYVGSRLDYGVPSRFSGSGSGTDFTLTISSLQPEDFATYYCQHSRELPWTFGQGTKVEIKGGGGSGGGGSGGGGSEVQLLESGGGLVQPGGSLRLSCAASGFTFSSYTMSWVRQAPGKGLEWVSVIDHGGGSTHYPDSVKGRFTISRDNSKNTLYLQMNSLRAEDTAVYYCARHRGNPFDYWGQGTLVTVSSGGGGSDIQMTQTTSSLSASLGDRVTISCRASQDISKYLNWYQQKPDGTVKLLIYHTSRLHSGVPSRFSGSGSGTDYSLTISNLEQEDIATYFCQQGNTLPYTFGGGTKLEITGGGGSGGGGSGGGGSEVKLQESGPGLVAPSQSLSVTCTVSGVSLPDYGVSWIRQPPRKGLEWLGVIWGSETTYYNSALKSRLTIIKDNSKSQVFLKMNSLQTDDTAIYYCAKHYYYGGSYAMDYWGQGTSVTVSS
0.35	52.2	M709.CD19 bi-specific antibody (bispecific antibody, anti-CD27 (M709) x anti-CD19; also called aCD27-aCD19) DIVMTQSPDSLAVSLGERATINCKASQSVDYAGESFMNWYQQKPGQPPKLLIYAASNLESGVPDRFSGSGSGTDFTLTISSLQAEDVAVYYCQQSNEDPYTFGQGTKLEIKGGGGSGGGGSGGGGSEVQLVQSGAEVKKPGESLKISCKGSGYAFSSSWMNWVRQMPGKGLEWMGRIYAGDADTAYSPSFQGQVTISADKSISTAYLQWSSLKASDTAMYYCARSDYYGDYGFAYWGQGTLVTVSSGGGGSDIQMTQTTSSLSASLGDRVTISCRASQDISKYLNWYQQKPDGTVKLLIYHTSRLHSGVPSRFSGSGSGTDYSLTISNLEQEDIATYFCQQGNTLPYTFGGGTKLEITGGGGSGGGGSGGGGSEVKLQESGPGLVAPSQSLSVTCTVSGVSLPDYGVSWIRQPPRKGLEWLGVIWGSETTYYNSALKSRLTIIKDNSKSQVFLKMNSLQTDDTAIYYCAKHYYYGGSYAMDYWGQGTSVTVSS
13.8	84.2	C2177.CD19 bi-specific antibody (bispecific antibody, anti-CD27 (C2177) x anti-CD19; also called aCD27-aCD19) DIVLTQSPASLAVSLGQRATISCKASQSVDYAGDSYMNWYQQKPGQPPKLLIYAASNLESGIPARFSGSGSGTDFTLNIHPVEEEDAATYYCQQSNEDPYTFGGGTKLEIKGGGGSGGGGSGGGGSQVQLQQSGPELVKPGASVKISCKASGYAFSSSWMNWVKQRPGKGLEWIGRIYPGDGDTNYNGKFKGKATLTADKSSSTAYMQLSSLTSEDSAVYFCARSDYYGDYGFAYWGQGTLVTVSAGGGGSDIQMTQTTSSLSASLGDRVTISCRASQDISKYLNWYQQKPDGTVKLLIYHTSRLHSGVPSRFSGSGSGTDYSLTISNLEQEDIATYFCQQGNTLPYTFGGGTKLEITGGGGSGGGGSGGGGSEVKLQESGPGLVAPSQSLSVTCTVSGVSLPDYGVSWIRQPPRKGLEWLGVIWGSETTYYNSALKSRLTIIKDNSKSQVFLKMNSLQTDDTAIYYCAKHYYYGGSYAMDYWGQGTSVTVSS
